According to a protein production outcome set (Wang et al. 2014):

assay: label from the status in PepcDB records

Row | Sequence | protein production
1 | MKVSILIITYNHSHFIAQAIESVLMQKVKFEYEIVIGEDSSTDNTRQILLDYQKQYSDKIRLLLPEKNLGMHRNFVNTLQACRGEYIAILEGDDYWIADDKLQKQVEFLDENPDFTICFHNVMVFHEDNQYQPYIFLHNQPTVSYIEDLLIRNFISTPSVMYRNGLVESIPTWFYEQGMGDWIFHILNAQYGKIGYIDEVMSAYRIHVQGVWSSKSRDWQLKETIRMLDTIKSNVNVRYAEIIDRAVQFYSEQLLYLVPESQEVTPVLNTSLPNYLQIKDINFIAFPDWNQPEELLYQSLYYAIKLFLTHPENNKIALFIDTTDISEEDADIYISSTLMNLMLEEELEESHKINVFLIGELDQIQWQTLLSFLKARIVLPSENLDAILASGTAIIPCLTVEQLIEFDLTFIESAKPYKLNIGCGNVRFHGWINIDIEQNYKTVDLVCDARQKLPFNDNSCDLIYNEHFLEHLTLEEGLFFLKECHRILKPEGILRIAMPSLEYVVQKYMSDDWRNQEWLNYPEYQFIKTRAEMLNIAMRWWGHQWLYDTEELHRRLTESGYINVQNFAWGKSNTPDLRNRETRVDSILICESQALK | failed
2 | MKVTDVRLRKIQTDGRMKALVSITLDEAFVIHDLRVIEGNSGLFVAMPSKRTPDGEFRDIAHPINSDMRQEIQDAVMKVYDETDEVVPDKNATSEDSEEA | not failed
3 | MKVYLHFSPQFFANTYLIGNEITKEAVIIDPAKITEKMIHQIEKNEFNLKAVLLTHDLEHPYETGLNTILKIYSPKVYAGSCFSENVTINTLRGDGCIDVAGYSVRYFAIPAHSSYSYMFQIENMVFTGTSLSAGMIGQTSNMYAERTLRNILKTKLMCFEDNLIIMPFYGPPTSIGVERKYNASFFQDLEHHHHHH | failed
4 | MKVYVVVPTYNESDNIVALMEKILAQRDNIHVLVVDDNSPDGTGEIAARMSSDNPRIHVLRRSGKMGLGSAYCDGFRVALRDGADFIIEMDADFSHDPATIPALLAATDKYDVVVGSRYLNGVSVVNWPIRRLMLSYFASVYTRFVTGLALRDCTSGFKCFRRRVIESVDLDTIRSDGYSFQIEMNYRCVERGFRVGEIPIIFIDRHAGSSKMSKKIVREAVLMVWKLKLGSLVKKLTRRGDRHAALEHHHHHH | not failed
5 | MKWILAVGLLSCSVAMAQQQSDILSVSASANAENAALAFDRNVKTMWTIPSQALKAEQWLMFTIQQPGDVCELDLQMQGINKNELKEVLDIFVTYDPMNLGTPVNYRIEGSDKQMKVKFTPKYGAHVKLNFKSGKLDKPFSLKEISVLVAEKVLTDSQGKVTDRRYMDASLPVEERVESLLAVMTPEDKMELIREGWGIPGIPHLYVPPITKVEAVHGFSYGSGATIFPQALAMGATWNRKLTEEVAMVIGDETVAANTKQAWSPVLDVAQDARWGRCEETFGEDPVLVSQIGGAWIKGYQSRGLFTTPKHFGGHGAPLGGRDSHDIGLSEREMREIHLVPFRHAIRNYDCQSLMMAYSDYMGVPVAKSKELLQQILRQEWGFNGFIVSDCGAIGNLTARKHYTAKDKIEAANQALAAGIATNCGDTYNNKEVIQAAKDGRINMEDLDNVCRTMLGTMFRNELFEKNPCKPLDWKKIYPGWNSDSHKEMARQAARESIVMLENKDNLLPLSKTLRTIAVLGPGADDLQPGDYTPKLLPGQLKSVLTGIKGAVGKQTKVLYEQGCDFTNPDETNIPKAVKAASQSDVVIMVLGDCSTSEATNDVRKTCGENNDWATLILPGKQQELLEAVCATGKPVILILQAGRPYDILKASEMCKAILVNWLPGQEGGPAMADVLFGDYNPAGRLPMTFPRHVGQLPLYYNFKTSGRRYEYVDMEYYPLYRFGFGLSYTSFEYSNLKIQEKANGNVEVQATVKNVGSRAGDEVAQLYVTDMYASVKTRVMELKDFARIHLQPGESKTVSFEMTPYDISLLNDRMDRVVEKGEFKIMVGGMSPDYVAKNEIKHSVGYSDNKKGVTGMLNYTHEFGANFDLAVSKVEENLVKNQKTVWVSVKNTGTLMDIGKVEMFVDGKKVGDAVHYELGAGEEKLIPFKLAKENKQPVAFTTKYKMVSM | failed
6 | MKWLKHFQSLHTKLVIVYVLLIIIGMQIIGLYFTNSLEKELTQTFKNNISQYAKQIEINIEKVYDEDNAINAQKEVQNLLNEYANRQEIEEIRFIDKDQIIMATSKQSTRSLINQKANDNSIQKALSLGEINSHTVLKDYGNGKQRVWVYNLPVKTSNDGTIGDVYIEADINDVYNQLSNINQIFIVGTGISLLITVILGFFIARTITKPITDMRNQTVEMSKGNYTQRVKIYGNDEIGELALAFNNLSKRVQEAQANTESEKRRLDSVITHMSDGIIATDRRGRVRIVNDMALTMMGTMKEDIIGDHMLKVLKLEEDFSLDEIQENNDSFLLDINENEGIIARVNFSTIVQETGFVTGYIAVLHDVTEQQQVERERREFVANVSHELRTPLTSMNSYIEALESGAWKDGELAPQFLSVTREETERMIRLVNDLLQLSKMDNESEQITKEIVDFNMFINKIINRHEMSAKDTTFVREVPTETIFTEIDPDKMTQVFDNVITNAMKYSRGDKRVEFHVKQNALYNRMTIRVKDNGIGIPINKVDKIFDRFYRVDKARTRKMGGTGLGLAISKEIVEAHNGRIWANSVEGQGTSIFITLPCEVLEDGDWDAE | failed
7 | MKWPWWPVCVPLSKRLTLPLPSTANPVVQPSRLALACANRLFEAADNRERFLQALMTPPAYPATVLWCGEPAAALPFAALPPLPWQPPWVSRFVAGSPTGQHPLHAAGAYYCLDSSSVFAAVPLLTLPQEPSLVIDVCAAPGGKSLFAWRSLHPRYLICNETIGKRVGKLIGNLKRCRVHPVGVTSWDSEVLAAEFQGTADVVIVDAPCSGQSLLAKGQKAEGCFHPLTIRHNQRRQKRILAAATTLVRPGGWLLYSTCTFSQDENEDVAAWLMAKFPHLLPQPVPALAAYQSHLAAFPCYRLWPHQGEGAGAFTILWQHQGLEHHHHHH | not failed
8 | MKWTTANTKHVNYTAKHELYVGTHTGSFKHLVPASEKTPYGQSNLSDLCALDKDSRVTSLAFGNDDQTEILLGRAKDAVEIHSFTEKGHSRNTVSFNAAPIVGLARYNDKLIAGIGNGEIQSLELEANDESEPVVIATGDQMDHLRQCAQVKSIVATGGKERQNNLKVYDLNADGKQIFTSKNLPNDYLQLEVPVWDSDIGFVDGPSVLATCSRTGYVRIYDTRKQRRPVACFASEEHGMSFTTLVAKGNFIYTGTTMGALKAFDTRRMKTHVHTYKGFTGGISDLHLDATGRFLSSASLDRYVRIHDSETTVLLYQCYVKSKATKILIRPFENEARVTEEPEEVADLQMDRNVSENKSVNATSVDNEYEDMFDQMPTVGDSDNESEEEMSNIKLSKADLKRRSSEKSLKNKKKKVVIS | failed
9 | MKYTYKQIWLINFPVMMSILMEQLINITDAVFLGHVGEIELGASALAGIYYLAIYMLGFGFSIGLQVMIARRNGEQHYKETGRTFFQGLYFLMVMAIMLCLLIHLVSPFILQQLITSDEIYQAVIRYLNWRSFGLLFSFPFLAFRAFLVGVTNTKLLSGAALTAVCINIPFNYLLIFKLDMGISGAAMASSIAEFGAFLILLLYMCKTVDKKKYGLSAVYDGRLLMKLLQLSVWSMLHAFISVAPWFLFFVAIEHLGKTELAISNITRSVSTLFFVIVNSFASTTGSLVSNLIGGGQGKELFPVCRKVLRLGYVVGLPLILTALWGNQWIIGFYTNNDYLVKLAFWPFIVMLLNYVFALPGYVYINAVTGTGKTRLAFVFQLVTILIYLIYLYLLSECFHASLTVYMTAEYLFVILLGIQSILYLKRKSKQNMYFCTFND | failed
10 | MLAGGAARRLGGADKPGLRVGGRPLLDRVLAACAGARRTVVVADPRPTARPVTWAREDPPGGGPLAALAAGLRHTTAEYVLVASADLPFLAGPTVGRLLSALAAGDADGVLLTDADGRDQPLVAAYRAPALRRELAALARNRAGRGERADGAQLTGLPLRRLTGALRLTRVPDAVAAFDCDTWDDLATARARIREHGHVLDEWISAAKDELGIDLDVDTGILLDLARDAAHGVARPAAPLTTFLVGYAAGRAGGGPEAVAETARKAAALAQRWAEEAADTGSAPARGKPDVAPDATPDTRPDA | failed
11 | MLAGGKMGDMKITRHIHACVEISQGNDRIIIDPGTFGAPDLCGATILVTHNHADHVDPELLKPGMTIYAPRSVAHSIPVECHIVEHGRNFTVGSLSVEVLGSEHAMLTHSMPIAENVGYLINGRVLHPGDTFQPIKDVELALVPVNGPWVKMLDVEGYLKKFPPKRFIGIHDGIVNDRGLAINKKFLTHLGETYGSEYSPLEEGESLEILEHHHHHH | failed
12 | MLAGGSLPSLAPDLVRDLIATAADISLLVSQEGVVREVMANPHHPSFGQLSEWEGRPLEEVLTAESVAKFRLRSEGLEPGRGSVAVELNHIDPRSFEFPIRYILHRLPADRSILMLGRDLRPIAEVQQQLVAAQLAMERDYETQREMETRYRVVLDVSRDPMVLVSMSTGRIVDLNSAAGLLLGGVRQDLLGAAIAQEFEGRRRGEFMETMTNLAATESAAPVEVLARRSQKRLLVVPRVFRAAGERLLLCQIDPADATQPVGDELSENLARLYHEGVDGIVFSDADGTIRGANEAFLNMTDSSSLAAIRGRSIADFLARGSVDLRVLIDSVRRTGQLRLYATRLTTDFAGQIAAEISATWLDDRERPLLVLVVRDTSRADTMRRPVPATGVIDEPARNVMELVGNSTLKDIVAETTDVVEKMCIETALELTRNNRVAAAEMLSLSRQSLYVKLRKFGLLNKDE | failed
13 | MLALVKRNCLLYFRNRSGVVFSLLGALISFILYLVFLKDNIESSWSQIDNTNQLLDTWLIGGTLAITGITTTLSNLSQWTKDKESHVRQDLLITDLGYWPLSLSYIISAALVGFIMQAIMLTIMGTYFYFTDKVTLSWTVLLQLIFIMILNTLISTIINALIVNRIQSVDNLGKLATIFGAASGFLVGTYVPIGALPDTAQTIMKLTPGAYIASLFRQTLMSDTLKDNFSQANAREHFEKMMGIRLNWQNLLTNTDTYYIVIGILVAGVLIFCLQNALRKYQALI | failed
14 | MLAQKNTNKKPFGNTLTNILCKDKKKKNLDPQISSLVSLVDNMDITQEKKDKIKNLSLKYINSRDVKEKNESINELQKYSNNEECKEQMDSYLMHLRMQNDIKCLKRKNLWNNIGINSITLSLIIIMIMIACMFAIYSTAQYIYVPASFLLIFIIYIVARYFPDMKIGFKKLKTKLNTFFQNKKQITK | failed
15 | MLARAALILLFFGLLGDSGAGQGRDGNALFDRGRYVAAAETYRAGLDALDDTTGSVYTGLQNNLGLALHRQERLGAARAALRKARRAATTEAERVRVLFNAATVAAEMNDRTKALDRYRTVLLLDPTHEAARFNYEYLKRQAGGGAGSDPPTLEPSPFAQKLKERADALVARTQYTTAAALLRDGMQKDSTVRAYRDFVTRIEEIAQIARSDP | failed
16 | MLARVLILLMFSLCAWPARAHALTIYTEEWPPITFQRNGIADGMAVEVVREIQGRIHDNSPIEVVPWARGYKDLLTTPGVMLFTVGRSEAREKQMTLLGPIAVSQTVLLARKGEAAKLLALGAGIYQRPVGAYRGSIFADAASAAGFVEVDLAPTPQLTAQKMLMGRYDMWVEGGFVVASVLKDIHQPANAVEVVRVLESLELYLAFSRGTSAEEVKRWQDGFAAIKKDGTFKRIYNKWLPRDAPPMEMKLLGVPPGTAR | failed
17 | MLDATTRSGGTATATPRATATDLTVATAAAAAGVTAPGAAVAVPTGFTARCTRVLLSPWSRLSLLVALLAAAASSVLLFEPQKLLAHGWPPQLGGAAAAVVFAVAYGLCTVAFVPRPLLNLAAGALFGSQWGTGTALAGTVLGAGVAFGLGRMLGQDALRPLLRGRWLKAVDGQLSRHAFRSMMAARLFPGVPFWAANYCAAVSRMRWVPFLVATALGSIPNTAAYAVAGARASRPTSPAFLIAMGFIAVPALVGAVVAWRKRHHLRGN | failed
